By Kd is commonly meant the constant that tells how readily two partners part at equilibrium.

No end group written: not given here.

The target of the first test is recombinant SARS-CoV-2 M^pro (Proteros) (SARS-CoV-2). The test is described as follows: FRET enzymatic inhibition assay.
For the molecule Ac-Gly-His-Tyr-aldehyde (SMILES CC(=O)NCC(=O)N[C@@H](Cc1c[nH]cn1)C(=O)N[C@H](C=O)Cc1ccc(O)cc1) [compound 7 (aldehydic tripeptide)], the Kd is above 213 µM.
The same measure, in the same setting: for Ac-Gly-His-His-aldehyde (SMILES CC(=O)NCC(=O)N[C@@H](Cc1c[nH]cn1)C(=O)N[C@H](C=O)Cc1c[nH]cn1) [compound 5 (aldehydic tripeptide)] the value was above 107 µM.
Still for that read-out and setting: with Pro-His-His-aldehyde [compound 9 (aldehydic tripeptide)] the figure was above 85 µM.
The same measure, in the same setting: with Ac-Gly-Tyr-His-aldehyde (SMILES CC(=O)NCC(=O)N[C@@H](Cc1ccc(O)cc1)C(=O)N[C@H](C=O)Cc1c[nH]cn1) [compound 8 (aldehydic tripeptide)] the figure was 98.9 ± 11.9 µM.

The next test has the same target. The test is described as follows: cell-based or functional assay.
For the molecule Ac-Gly-His-Tyr-aldehyde (SMILES CC(=O)NCC(=O)N[C@@H](Cc1c[nH]cn1)C(=O)N[C@H](C=O)Cc1ccc(O)cc1) [compound 7 (aldehydic tripeptide)], the “IC50 of inhibition of M^pro enzymatic activity (FRET substrate cleavage)” value is above 425 µM.
Still for that read-out and setting: with Ac-Gly-His-His-aldehyde (SMILES CC(=O)NCC(=O)N[C@@H](Cc1c[nH]cn1)C(=O)N[C@H](C=O)Cc1c[nH]cn1) [compound 5 (aldehydic tripeptide)] the figure was above 213 µM; with Pro-His-His-aldehyde [compound 9 (aldehydic tripeptide)], above 170 µM; with Ac-Gly-Tyr-His-aldehyde (SMILES CC(=O)NCC(=O)N[C@@H](Cc1ccc(O)cc1)C(=O)N[C@H](C=O)Cc1c[nH]cn1) [compound 8 (aldehydic tripeptide)], 198 µM.
